Source: patent US20020051988A1 (TRUSTEES OF BOSTON UNIVERSITY, published 2002)
One block for each molecule: values may come before it. Where no end group is shown, it is not given here.

How the values were obtained:
[1] = biological target: p75 nerve growth factor receptor (p75^NTR) overexpressed on permanently transfected NIH 3T3 fibroblasts (Homo sapiens (Human)) (UniProt P08138); test: competition with ^125I β-amyloid 1-40 on p75^NTR-NIH 3T3 cells, 2 h at 4 C, NGF 0-100 ng/ml; value at 100 ng/ml NGF
[2] = biological target: p75 nerve growth factor receptor (p75^NTR) on cultured normal human melanocytes (human) (UniProt P08138); test: cell-based or functional assay
[3] = biological target: p75 nerve growth factor receptor (p75^NTR) overexpressed on permanently transfected NIH 3T3 fibroblasts (Homo sapiens (Human)) (UniProt P08138); test: cell-based or functional assay
[4] = biological target: T1, p75 nerve growth factor receptor (p75^NTR) overexpressed on permanently transfected NIH 3T3 fibroblasts (Homo sapiens (Human), UniProt P08138 29-427); test: displacement of ^125I β-amyloid 1-40 from p75^NTR 3T3 cells, 4 h at 4 C, peptide 0-400 nM
T1 construct: also called 75 kD neurotrophin receptor
T1 sequence: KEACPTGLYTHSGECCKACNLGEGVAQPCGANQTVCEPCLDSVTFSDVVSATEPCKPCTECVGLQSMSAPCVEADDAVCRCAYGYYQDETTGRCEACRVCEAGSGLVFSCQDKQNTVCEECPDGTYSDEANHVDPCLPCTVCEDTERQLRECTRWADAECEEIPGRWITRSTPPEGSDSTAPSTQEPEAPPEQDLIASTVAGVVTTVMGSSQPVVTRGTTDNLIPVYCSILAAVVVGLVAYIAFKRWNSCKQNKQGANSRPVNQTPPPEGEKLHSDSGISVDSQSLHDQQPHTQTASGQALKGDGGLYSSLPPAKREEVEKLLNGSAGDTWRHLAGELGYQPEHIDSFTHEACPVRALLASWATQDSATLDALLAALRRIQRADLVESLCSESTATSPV

maximum % inhibition of ^125I labeled β-amyloid binding [1]: 38%
Molecule: Nerve growth factor (NGF) (ligand)

Bax induction [2]: 3 fold | Bax level as compared to the 40-1 peptide [2]: 160%
Molecule: β-amyloid 25-35 peptide (from UniProt P05067 696-706)

decrease in cell yield [3]: 60% | Bax induction [2]: 3 fold | Bax level as compared to the 40-1 peptide [2]: 270% | decrease in cell yield [2]: 59% | decrease in melanocyte yield [2]: > 50%
Molecule: β-amyloid 1-40 peptide (from UniProt P05067 1-40)

IC50 [4]: 25 nM
B1: cyclic peptide CVGSNKGAIC (SEQ ID NO: 4) (peptide)
peptide: CVGSNKGAIC
modifications: also: cyclic peptide, ring closure not given here
notes: also called cyclic decapeptide; cold peptide
